Assay results from patent publication US20100279930A1 (published 2010).
Where two headings read alike, the source gives them in different places. No end group written: not given here.

Experiments:
human Y4 receptor [1] = molecular target: T1, human Y4 receptor (human, UniProt P50391 1-375); experiment: 125I-PP displacement
human Y4 receptor [2] = molecular target: T1, human Y4 receptor; experiment: 125I-PP displacement; remark: listed apart in the source

T1 sequence (P50391 whole entry): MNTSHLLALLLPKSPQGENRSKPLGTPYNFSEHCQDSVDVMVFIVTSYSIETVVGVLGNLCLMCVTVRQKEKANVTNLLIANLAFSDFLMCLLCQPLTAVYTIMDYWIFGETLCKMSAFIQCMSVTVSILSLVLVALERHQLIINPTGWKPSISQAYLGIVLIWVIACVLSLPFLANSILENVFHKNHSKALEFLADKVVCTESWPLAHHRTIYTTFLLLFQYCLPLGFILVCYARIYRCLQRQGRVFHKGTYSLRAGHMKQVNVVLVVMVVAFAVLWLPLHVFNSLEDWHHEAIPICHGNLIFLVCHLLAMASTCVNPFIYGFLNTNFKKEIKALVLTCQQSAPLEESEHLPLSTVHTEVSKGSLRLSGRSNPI

Row | IC50 (human Y4 receptor [1]) [nM] | IC50 (human Y4 receptor [2]) [nM] | Binder
1 | 0.05 |  | AAPLEPHYPGDNATPEQLARYYSELRRYINKLTRPRY [4059969]
2 |  | 0.062 | AAPLEPVYPGDNATPEQMAKYYSELRRYINKLTRPRY [4057271]
3 |  | 0.125 | AAPLEPVYPGDNATPEQMARYAAELRRYINKLTRPRY [4057161]
4 | 0.075 |  | GAPLEPTYPGDNATPEQLARYYSELRRYINKLTRPRY [4060211]
5 |  | 0.162 | HPLEPEYPGDDATPQQMARYAAELRRYINKLTRPRY [4057275]
6 |  | 0.059 | APLEPVYPGDNATPEQMARYAAELRRYINKLTRPRY [4057160]
7 |  | 0.083 | APLEPEYPGDDATPQQMAKYAADLRRYINKLTRPRY [4057257]
8 |  | 0.085 | GPLEPEYPGDDATPQQMARYAAELRRYINKLTRPRY [4057276]
9 |  | 0.103 | EPLEPEYPGDDATPQQMARYAAELRRYINKLTRPRY [4057274]
10 |  | 0.078 | APLEPEYPGDDATPQQMAHYAAELRRYINKLTRPRY [4057139]
11 |  | 0.093 | DPLEPEYPGDDATPQQMARYAAELRRYINKLTRPRY [4057277]
12 |  | 0.086 | PLEPEYPGDDATPQQMAHYAAELRRYINKLTRPRY [4057138]
13 |  | 0.073 | PLEPEYPGDDATPQQMAKYAADLRRYINKLTRPRY [4057256]
14 |  | 0.057 | PLEPEYPGDDATPQQMARYAAELRRYINKLTRPRY [4057153]
15 |  | 0.053 | PLEPVYPGDNATPEQMARYAAELRRYINKLTRPRY [4057159]
16 |  | 0.085 | APLEPVYPGDNATPEQMAKYYSELRRYINKLTRPRY [4057270]
17 |  | 0.056 | PLEPVYPGDNATPEQMAKYAADLRRYINKLTRPRY [4057261]
18 |  | 0.082 | PLEPVYPGDNATPEQMARYAADLRRYINKLTRPRY [4057334]
19 |  | 0.061 | PAPLEPVYPGDDATPQQMAKYAADLRRYINKLTRPRY [4057273]
20 |  | 0.199 | PAPLEPVYPGDNATPEQDAKYAADLRRYINKLTRPRY [4057147]

Row | IC50 (human Y4 receptor [1]) [nM] | IC50 (human Y4 receptor [2]) [nM] | Binder
21 |  | 0.07 | PAPLEPVYPGDNATPEQLAKYAADLRRYINKLTRPRY [4057145]
22 |  | 0.109 | DAPLEPVYPGDNATPEQMARYAADLRRYINKLTRPRY [4057337]
23 |  | 0.059 | PAPLEPVYPGDNATPEQMAKYAADLRRYINKLTRPRF [4057235]
24 |  | 0.069 | PAPLEPVYPGDNATPEQTAKYAADLRRYINKLTRPRY [4057148]
25 |  | 0.09 | GAPLEPVYPGDNATPEQMARYAADLRRYINKLTRPRY [4057336]
26 |  | 0.08 | PAPLEPVYPGDNATPEQVAKYAADLRRYINKLTRPRY [4057146]
27 |  | 0.08 | PAPLEPVYPGDNATPEQMARYAADLRRYINKLTRPRY [4057335]
28 |  | 0.078 | HAPLEPVYPGDNATPEQMARYAADLRRYINKLTRPRY [4057338]
29 |  | 0.22 | 4057255 (protein) CAPLEPVYPGDNATPEQMARYAADLRRYINKLTRPRYCAPLEPVYPGDNATPEQMARYAADLRRYINKLTRPRY
30 |  | 0.209 | 4057260 (protein) CAPLEPEYPGDDATPQQMAKYAADLRRYINKLTRPRYCAPLEPEYPGDDATPQQMAKYAADLRRYINKLTRPRY
31 | 0.115 |  | PAPLEPHFPGDNATPEEMAKYAAELRRYINKLTRPRY [4059940]
32 |  | 0.109 | PAPLEPTYPGDNATPEEMAKYAAELRRYINKLTRPRY [4057446]
33 |  | 0.128 | PAPLEPEYPGDNATPEQMAKYAADLRRYINKLTRPRY [4057232]
34 |  | 0.06 | PAPLEPVYPGDNATPEQMARYAAELRRYINKLTRPRY [4057162]
35 |  | 0.089 | PAPLEPTYPGDNATPEQLAKYAAELRRYINKLTRPRY [4057440]
36 |  | 0.107 | PAPLEPTYPGDDATPEEMAKYAAELRRYINKLTRPRY [4057445]
37 |  | 0.141 | PAPLEPVYPGDNATPEQMAHYAAELRRYINKLTRPRY [4057152]
38 | 0.093 |  | PAPLEPHYPGDNATPEEMAKYAAELRRYLNKLTRPRY [4059951]
39 |  | 0.13 | PAPLEPFYPGDNATPEQMAKYAADLRRYINKLTRPRY [4057233]
40 | 0.136 |  | PAPLEPKYPGDNATPEELARYAAELRRYINKLTRPRY [4060138]

Row | IC50 (human Y4 receptor [1]) [nM] | IC50 (human Y4 receptor [2]) [nM] | Binder
41 | 0.09 |  | GAPLEPHFPGDNATPEEMAKYAAELRRYINKLTRPRY (ends and bridges not checked) [compound of SEQ ID NO:1092]
42 | 0.209 |  | GAPLEPHAPGDNATPEEMAKYAAELRRYINKLTRPRY (ends and bridges not checked) [compound of SEQ ID NO:1090 (code 4059937)]
43 | 0.112 |  | PAPLEPEYPGDDATPEQMAKYAAELRRYINKLTRPRY [4060205]
44 |  | 0.056 | PAPLEPVYPGDNATPEQMAKYAAELRRYINKLTRPRY [4057151]
45 |  | 0.116 | PAPLEPTYPGDDATPQEMAKYAAELRRYINKLTRPRY [4057444]
46 |  | 0.143 | PAPLEPTYPGDNATPEQMAKYAADLRRYINKLTRPRY [4057229]
47 |  | 0.049 | AKPLEPEYPGDDATPQQMARYAAELRRYINKLTRPRY [4057280]
48 |  | 0.078 | PAPLEPEYPGDDATPQQMAKYAADLRRYINKLTRPRY [4057258]
49 |  | 0.126 | PAPLEPEYPGDDATPQQMAHYAAELRRYINKLTRPRY [4057140]
50 |  | 0.097 | DAPLEPEYPGDDATPQQMARYAAELRRYINKLTRPRY [4057135]
51 |  | 0.083 | AAPLEPEYPGDDATPQQMAKYAADLRRYINKLTRPRY [4057259]
52 |  | 0.088 | PAPLEPEYPGDDATPQQLAKYAAELRRYINKLTRPRY [4057441]
53 |  | 0.101 | PAPLEPSYPGDDATPQQMAKYAAELRRYINKLTRPRY [4057442]
54 |  | 0.078 | PAPLEPDYPGDDATPQQMAKYAAELRRYINKLTRPRY [4057443]
55 |  | 0.064 | GAPLEPEYPGDDATPQQMARYAAELRRYINKLTRPRY [4057136]
56 |  | 0.08 | PKPLEPEYPGDDATPQQMARYAAELRRYINKLTRPRY [4057279]
57 |  | 0.088 | GAPLEPVYPGDNATPEQMARYAAELRRYINKLTRPRY [4057163]
58 |  | 0.068 | HAPLEPVYPGDNATPEQMARYAAELRRYINKLTRPRY [4057228]
